Source: the RNAGym collection of RNA variant scans (doi:10.7554/elife.80360)

B1: Hairpin Ribozyme (parent)
chain: GUCCUCUUUCACGUGCGCGUGAAAGAGAGAAGUGAACCAGAGAAACACACGUUGUGGUAUAUUACCUGGUA

Variants of: B1
Experiment: self-cleavage, relative activity (ratio to wild type); higher = more cleavage; co-transcriptional

Point of comparison: GUCCUCAUUAACGUGCGCGUGAAAGAGAGAAGUGAACCAGAGAAACACACGUUGUGGUAUAUUACCUGGUA, self-cleavage 0.736. Against it:
- GUCCUUUUUCACGUGCGCGUGAAAGAGAGAAGUGAACCAGAGAAACACUCGUUGUGGUAUAUUACCUGGUA — lower, 0.159
- GUCCUUUUUCACGUGCGCGUGAAAGAGAGAAGUGAACCAGAGAAACACACGUUGUGGUAUCUUACCUGGUA — lower, 0.296
- GUCCUUUUUCACGUGCGCGUGAAAGAGAGAAGUGAACCAGAGAAACACACGUUGUGGUAUAUUACCUGGUC — higher, 1.05
- GUCCUUUUUCAUGUGCGCGUGAAAGAGAGAAGUGAACCAGAGAAACACACGUUGUGGUAUAUUACCUGGUA — lower, 0.696
- GUCCUUUUUCACGUGGGCGUGAAAGAGAGAAGUGAACCAGAGAAACACACGUUGUGGUAUAUUACCUGGUA — lower, 0.65
- GUCCUUUUUCACGUGUGCGUGAAAGAGAGAAGUGAACCAGAGAAACACACGUUGUGGUAUAUUACCUGGUA — higher, 0.971
- GUCCUUUUUCACGUGCGCGUGAAAGAGAGAAGUGAAACAGAGAAACACACGUUGUGGUAUAUUACCUGGUA — lower, 0.286
- GUCCUUUUUCACGUGCGCGUGAAAGAGAGAAGUGAACAAGAGAAACACACGUUGUGGUAUAUUACCUGGUA — lower, 0.0889
- GUCCUUUUUCACGUGCGCGUGAAAGAGAGAAGUGAACCAGAGAAACAAACGUUGUGGUAUAUUACCUGGUA — lower, 0.209
- GUCCUUUUUCACGUGCGCGUGAAAGAGAGAAGUGAACCAGAGAAACAUACGUUGUGGUAUAUUACCUGGUA — lower, 0.227
- GUCCUUUUUCACGUGCGCGUGAAAGAGAGAAGUGAACCAGAGAAACACACGUUGUGGUAUAUUAUCUGGUA — lower, 0.323
- GUCCUUUUUCACGUGCGCGUGAAAGAGAGAAGUGAACCAGAGAAACACACGUUGUGGUAUAUUACAUGGUA — lower, 0.11
- GUCCUUUUUCACGUGCGCGUGAAAGAGAGAAGUGAACCAGAGAAACACACGUUGUGGUAUAUUACGUGGUA — lower, 0.194
- GUCCUUUUUCACGUUCGCGUGAAAGAGAGAAGUGAACCAGAGAAACACACGUUGUGGUAUAUUACCUGGUA — higher, 0.814
- GUCCUUUUUCACGUGCACGUGAAAGAGAGAAGUGAACCAGAGAAACACACGUUGUGGUAUAUUACCUGGUA — higher, 0.917
- GUCCUUUUUCACGUGCCCGUGAAAGAGAGAAGUGAACCAGAGAAACACACGUUGUGGUAUAUUACCUGGUA — lower, 0.434
- GUCCUUUUUCACGUGCGCGUUAAAGAGAGAAGUGAACCAGAGAAACACACGUUGUGGUAUAUUACCUGGUA — lower, 0.468
- GUCCUUUUUCACGUGCGCGUGAAACAGAGAAGUGAACCAGAGAAACACACGUUGUGGUAUAUUACCUGGUA — higher, 0.773
- GUCCUUUUUCACGUGCGCGUGAAAGAGAAAAGUGAACCAGAGAAACACACGUUGUGGUAUAUUACCUGGUA — lower, 0.158
- GUCCUUUUUCACGUGCGCGUGAAAGAGAGAAGUUAACCAGAGAAACACACGUUGUGGUAUAUUACCUGGUA — higher, 1.21
- GUCCUUUUUCACGUGCGCGUGAAAGAGAGAAGUGAACCAUAGAAACACACGUUGUGGUAUAUUACCUGGUA — lower, 0.166
- GUCCUUUUUCACGUGCGCGUGAAAGAGAGAAGUGAACCAGAAAAACACACGUUGUGGUAUAUUACCUGGUA — lower, 0.275
- GUCCUUUUUCACGUGCGCGUGAAAGAGAGAAGUGAACCAGAGAAACACACAUUGUGGUAUAUUACCUGGUA — higher, 0.816
- GUCCUUUUUCACGUGCGCGUGAAAGAGAGAAGUGAACCAGAGAAACACACGUUGUUGUAUAUUACCUGGUA — lower, 0.144
- GUCCUUUUUCACGUGCGCGUGAAAGAGAGAAGUGAACCAGAGAAACACACGUUGUGGUAUAUUACCUAGUA — lower, 0.209
- GUCCUUUUUCACGUGCGCGUGAAAGAGAGAAGUGAACCAGAGAAACACACGUUGUGGUAUAUUACCUCGUA — lower, 0.154
- GUCCUUUUUCACGUGCGCGUGAAAGAGAGAAGUGAACCAGAGAAACACACGUUGUGGUAUAUUACCUUGUA — lower, 0.239
- GUCCUUCUUCACGUGCGCGUGAAAGAGAGAAGUGAACCAGAGAAACACACGUUGUGGUAUAUUACCUGGUA — lower, 0.555
- GUCCUUUCUCACGUGCGCGUGAAAGAGAGAAGUGAACCAGAGAAACACACGUUGUGGUAUAUUACCUGGUA — lower, 0.686
- GUCCUUUUUCACGUGCGCGUGAAAGAGAGAAGAGAACCAGAGAAACACACGUUGUGGUAUAUUACCUGGUA — lower, 0.148
- GUCCUUUUUCACGUGCGCGUGAAAGAGAGAAGUGAACCAGAGAAACACACGUCGUGGUAUAUUACCUGGUA — lower, 0.704
- GUCCUUUUUCACGUGCGCGUGAAAGAGAGAAGUGAACCAGAGAAACACACGUGGUGGUAUAUUACCUGGUA — higher, 0.801
- GUCCUUUUUCACGUGCGCGUGAAAGAGAGAAGUGAACCAGAGAAACACACGUUGUGGAAUAUUACCUGGUA — lower, 0.66
- GUCCUUUUUCACGUGCGCGUGAAAGAGAGAAGUGAACCAGAGAAACACACGUUGUGGUAUAGUACCUGGUA — lower, 0.102
- GUCCUUUUUCACGUGCGCGUGAAAGAGAGAAGUGAACCAGAGAAACACACGUUGUGGUAUAUCACCUGGUA — lower, 0.167
- GUCCUUUUUCACGUGCGCGUGAAAGAGAGAAGUGAACCAGAGAAACACACGUUGUGGUAUAUGACCUGGUA — lower, 0.119
- GUCCUUUUUCACGUGCGCGUGAAAGAGAGAAGUGAACCAGAGAAACACACGUUGUGGUAUAUUACCGGGUA — lower, 0.271
- GUCCUUUUUCACGUGCGCGUGAAAGAGAGAAGUGAACCAGAGAAACACACGUUGUGGUAUAUUACCUGGCA — higher, 0.901
- GUCCUUUUUCACGUGCGCGUGAAAGAGAGAAGUGAACCAGAGAAACACACGUUGUGGUAUAUUACCUGGGA — lower, 0.588
- GUCCUCAUUCACGUGCGCGUGUAAGAGAGAAGUGAACCAGAGAAACACACGUUGUGGUAUAUUACCUGGUA — higher, 0.814
- GUCCUCAUUCACGUGCGCGUGAGAGAGAGAAGUGAACCAGAGAAACACACGUUGUGGUAUAUUACCUGGUA — higher, 0.866
- GUCCUCAUUCACGUGCGCGUGAAUGAGAGAAGUGAACCAGAGAAACACACGUUGUGGUAUAUUACCUGGUA — higher, 1.15
- GUCCUCAUUCACGUGCGCGUGAAAGCGAGAAGUGAACCAGAGAAACACACGUUGUGGUAUAUUACCUGGUA — lower, 0.174
- GUCCUCAUUCACGUGCGCGUGAAAGUGAGAAGUGAACCAGAGAAACACACGUUGUGGUAUAUUACCUGGUA — lower, 0.202
- GUCCUCAUUCACGUGCGCGUGAAAGAGUGAAGUGAACCAGAGAAACACACGUUGUGGUAUAUUACCUGGUA — lower, 0.58
- GUCCUCAUUCACGUGCGCGUGAAAGAGAGAAGUGCACCAGAGAAACACACGUUGUGGUAUAUUACCUGGUA — higher, 1.28
- GUCCUCAUUCACGUGCGCGUGAAAGAGAGAAGUGAGCCAGAGAAACACACGUUGUGGUAUAUUACCUGGUA — higher, 1.03
- GUCCUCAUUCACGUGCGCGUGAAAGAGAGAAGUGAACCCGAGAAACACACGUUGUGGUAUAUUACCUGGUA — lower, 0.498
- GUCCUCAUUCACGUGCGCGUGAAAGAGAGAAGUGAACCAGGGAAACACACGUUGUGGUAUAUUACCUGGUA — higher, 0.973
- GUCCUCAUUCACGUGCGCGUGAAAGAGAGAAGUGAACCAGAGUAACACACGUUGUGGUAUAUUACCUGGUA — lower, 0.216
- GUCCUCAUUCACGUGCGCGUGAAAGAGAGAAGUGAACCAGAGAGACACACGUUGUGGUAUAUUACCUGGUA — lower, 0.201
- GUCCUCAUUCACGUGCGCGUGAAAGAGAGAAGUGAACCAGAGAUACACACGUUGUGGUAUAUUACCUGGUA — lower, 0.117
- GUCCUCAUUCACGUGCGCGUGAAAGAGAGAAGUGAACCAGAGAACCACACGUUGUGGUAUAUUACCUGGUA — lower, 0.232
- GUCCUCAUUCACGUGCGCGUGAAAGAGAGAAGUGAACCAGAGAAACACCCGUUGUGGUAUAUUACCUGGUA — lower, 0.18
- GUCCUCAUUCACGUGCGCGUGAAAGAGAGAAGUGAACCAGAGAAACACACGUUGUGGUAUGUUACCUGGUA — lower, 0.186
- GUCCUCAUUCACGUGCGCGUGAAAGAGAGAAGUGAACCAGAGAAACACACGUUGUGGUAUUUUACCUGGUA — lower, 0.167
- GUCCUCAUUCACGUGCGCGUGAAAGAGAGAAGUGAACCAGAGAAACACACGUUGUGGUAUAUUGCCUGGUA — lower, 0.525
- GUCCUCAUUUACGUGCGCGUGAAAGAGAGAAGUGAACCAGAGAAACACACGUUGUGGUAUAUUACCUGGUA — higher, 0.799
- GUCCUCAUUCACGUGCGGGUGAAAGAGAGAAGUGAACCAGAGAAACACACGUUGUGGUAUAUUACCUGGUA — higher, 0.802
- GUCCUCAUUCACGUGCGCGUGAAAGAGAGAAGUGAACGAGAGAAACACACGUUGUGGUAUAUUACCUGGUA — lower, 0.2
- GUCCUCAUUCACGUGCGCGUGAAAGAGAGAAGUGAACCAGAGAAAAACACGUUGUGGUAUAUUACCUGGUA — lower, 0.0948
- GUCCUCAUUCACGUGCGCGUGAAAGAGAGAAGUGAACCAGAGAAACAAACGUUGUGGUAUAUUACCUGGUA — lower, 0.165
- GUCCUCAUUCACGUGCGCGUGAAAGAGAGAAGUGAACCAGAGAAACAGACGUUGUGGUAUAUUACCUGGUA — lower, 0.0789
- GUCCUCAUUCACGUGCGCGUGAAAGAGAGAAGUGAACCAGAGAAACAUACGUUGUGGUAUAUUACCUGGUA — lower, 0.0656
- GUCCUCAUUCACGUGCGCGUGAAAGAGAGAAGUGAACCAGAGAAACACACGUUGUGGUAUAUUAGCUGGUA — lower, 0.284
- GUCCUCAUUCACCUGCGCGUGAAAGAGAGAAGUGAACCAGAGAAACACACGUUGUGGUAUAUUACCUGGUA — higher, 0.778
- GUCCUCAUUCACUUGCGCGUGAAAGAGAGAAGUGAACCAGAGAAACACACGUUGUGGUAUAUUACCUGGUA — higher, 0.774
- GUCCUCAUUCACGUACGCGUGAAAGAGAGAAGUGAACCAGAGAAACACACGUUGUGGUAUAUUACCUGGUA — higher, 0.909
- GUCCUCAUUCACGUCCGCGUGAAAGAGAGAAGUGAACCAGAGAAACACACGUUGUGGUAUAUUACCUGGUA — higher, 1.06
- GUCCUCAUUCACGUUCGCGUGAAAGAGAGAAGUGAACCAGAGAAACACACGUUGUGGUAUAUUACCUGGUA — higher, 0.844
- GUCCUCAUUCACGUGCCCGUGAAAGAGAGAAGUGAACCAGAGAAACACACGUUGUGGUAUAUUACCUGGUA — higher, 0.791
- GUCCUCAUUCACGUGCGCGUAAAAGAGAGAAGUGAACCAGAGAAACACACGUUGUGGUAUAUUACCUGGUA — lower, 0.706
- GUCCUCAUUCACGUGCGCGUGAAAAAGAGAAGUGAACCAGAGAAACACACGUUGUGGUAUAUUACCUGGUA — lower, 0.249
- GUCCUCAUUCACGUGCGCGUGAAAUAGAGAAGUGAACCAGAGAAACACACGUUGUGGUAUAUUACCUGGUA — lower, 0.229
- GUCCUCAUUCACGUGCGCGUGAAAGAAAGAAGUGAACCAGAGAAACACACGUUGUGGUAUAUUACCUGGUA — lower, 0.27
